Where a chain is given by its changes, count along the chain named. Like-named read-outs stand apart in the source and are kept apart here.
Legend:
[1] = molecular target: T1, cynomolgus monkey TG2 (cynomolgus monkey, UniProt A0A2K5VXI8 2-687); assay: ELISA
T1 chain: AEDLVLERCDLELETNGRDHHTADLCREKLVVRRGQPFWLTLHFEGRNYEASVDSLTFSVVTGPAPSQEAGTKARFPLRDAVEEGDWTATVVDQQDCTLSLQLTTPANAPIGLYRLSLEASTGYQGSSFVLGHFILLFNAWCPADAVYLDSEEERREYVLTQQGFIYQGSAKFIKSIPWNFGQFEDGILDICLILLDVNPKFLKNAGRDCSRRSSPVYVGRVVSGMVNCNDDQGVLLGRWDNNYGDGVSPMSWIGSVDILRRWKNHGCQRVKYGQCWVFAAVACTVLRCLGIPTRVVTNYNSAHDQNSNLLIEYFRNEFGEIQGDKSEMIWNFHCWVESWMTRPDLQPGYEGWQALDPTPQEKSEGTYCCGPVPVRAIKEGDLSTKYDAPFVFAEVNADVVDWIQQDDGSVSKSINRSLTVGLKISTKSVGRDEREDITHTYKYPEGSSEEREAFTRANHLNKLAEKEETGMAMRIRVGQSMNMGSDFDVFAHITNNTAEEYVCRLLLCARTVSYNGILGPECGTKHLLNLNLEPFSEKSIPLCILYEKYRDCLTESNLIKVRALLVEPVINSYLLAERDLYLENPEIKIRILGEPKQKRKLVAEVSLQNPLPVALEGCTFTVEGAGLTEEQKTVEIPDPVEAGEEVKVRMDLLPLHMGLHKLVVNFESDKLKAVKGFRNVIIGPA

[2] = molecular target: T2, human transglutaminase type 2 (TG2) (UniProt P21980 1-687); assay: ELISA
T2 chain: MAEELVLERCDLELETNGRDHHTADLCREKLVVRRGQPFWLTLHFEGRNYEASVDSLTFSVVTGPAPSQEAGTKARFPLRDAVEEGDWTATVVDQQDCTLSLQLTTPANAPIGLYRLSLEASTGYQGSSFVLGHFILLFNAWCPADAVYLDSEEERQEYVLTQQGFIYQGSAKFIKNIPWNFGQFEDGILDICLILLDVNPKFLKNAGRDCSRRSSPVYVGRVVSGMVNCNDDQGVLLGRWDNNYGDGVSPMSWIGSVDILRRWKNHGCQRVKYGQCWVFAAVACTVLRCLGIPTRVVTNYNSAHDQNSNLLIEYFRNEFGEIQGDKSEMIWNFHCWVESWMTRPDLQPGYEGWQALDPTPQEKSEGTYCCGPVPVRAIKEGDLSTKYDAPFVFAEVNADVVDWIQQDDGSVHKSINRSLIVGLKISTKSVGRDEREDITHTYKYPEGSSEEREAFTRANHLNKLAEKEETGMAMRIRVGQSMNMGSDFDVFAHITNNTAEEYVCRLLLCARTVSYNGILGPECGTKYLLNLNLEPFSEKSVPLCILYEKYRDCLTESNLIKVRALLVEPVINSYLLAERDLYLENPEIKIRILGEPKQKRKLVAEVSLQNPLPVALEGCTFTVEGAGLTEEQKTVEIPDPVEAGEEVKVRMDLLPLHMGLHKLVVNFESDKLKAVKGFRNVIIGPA

[3] = molecular target: T2, human transglutaminase type 2 (TG2); assay: enzyme inhibition
[4] = molecular target: T1, cynomolgus monkey TG2; assay: enzyme inhibition
[5] = molecular target: T1, cynomolgus monkey TG2; assay: ELISA
[6] = molecular target: T2, human transglutaminase type 2 (TG2); assay: ELISA
[7] = molecular target: T2, human transglutaminase type 2 (TG2); assay: enzyme inhibition
[8] = molecular target: T2, human transglutaminase type 2 (TG2); assay: enzyme inhibition
[9] = molecular target: T2, human transglutaminase type 2 (TG2); assay: enzyme inhibition

B1: cAB003 chimeric anti-TG2 antibody (murine AB1 variable regions, human IgG1 and human kappa) (antibody, V domains shown)
VH: EVQLVESGGGLVKPGGSLKLSCAASGFTLSSSAMSWVRQTPDRRLEWVATISVGGGKTYYPDSVKGRFTISRDNAKNTLYLQMNSLRSEDTAMYYCAKLISLYWGQGTTLTVSS
VL: DIKMTQSPSSMYASLGERVTITCKASQDINSYLTWFQQKPGKSPKTLIYRTNRLFDGVPSRFSGSGSGQDFFLTISSLEYEDMGIYYCLQYDDFPYTFGGGTKLEIK
B1 gave an EC50 [1] of 0.0568 nM, an EC50 [2] of 0.0614 nM and an IC50 [3] of 1.17 nM.

B2: hBB001AA humanised BB7 antibody (BB7 RHA with BB7 RKA) (antibody, V domains shown)
VH: EVQLLESGGGLVQPGGSLRLSCAASGIIFSSSAMSWVRQAPGKGLEWVATISSGGRSTYYPDSVKGRFTVSRDSSKNTLYLQMNSLRAEDTAVYYCAKLISPYWGQGTLVTVSS
VL: DIKMTQSPSSLSASVGDRVTITCKASQDINSYLTWFQQKPGKAPKTLIYLTNRLMDGVPSRFSGSGSGQEFLLTISSLQPEDFATYYCLQYVDFPYTFGQGTKVEIK
For B2, the IC50 [4] was 8.51 nM, the EC50 [5] was 0.0561 nM and the EC50 [6] was about 0.0474 nM. For the same binder, the IC50 [7] was 5.99 nM.

B3: hBB001BB humanised BB7 antibody (BB7 RHB with BB7 RKB) (antibody, V domains shown)
VH: B2 VH with I27F, I28T, A49S, V70I, S74N
VL: B2 VL with K3Q, T46S, Q69T, E70D, L72F
B3 was tested, and the EC50 [5] was 0.0738 nM, the EC50 [6] was 0.0627 nM and the IC50 [7] was 0.985 nM.

B4: DC1 murine monoclonal anti-TG2 antibody (antibody, V domains shown)
VH: EVQLVESGGGLVKPGGSLKLSCAASGFTLSTHAMSWVRQTPEKRLEWVATISSGGRSTYYPDSVKGRFTISRDNVKNTLYLQLSSLRSEDTAVYFCARLISTYWGQGTTLTVSS
VL: B1 VL with K3T, M11I, T46I, R50L, T51V, F55V, F71Y, F72A
B4 was tested, and the EC50 [8] was 0.571 nM.

B5: DH2 murine monoclonal anti-TG2 antibody (antibody, V domains shown)
VH: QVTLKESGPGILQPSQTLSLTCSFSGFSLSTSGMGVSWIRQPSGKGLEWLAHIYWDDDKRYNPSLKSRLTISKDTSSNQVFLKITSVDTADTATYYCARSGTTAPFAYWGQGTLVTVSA
VL: QIVLTQSPAIMSASPGEKVTMTCSASSSVSYMYWYQQKPGSSPRLLIYDTSNLASGVPVRFSGSGSGTSYSLTISRMEAEDAATFYCQQWSSSPLTFGAGTKLELK
For B5, the EC50 [9] was about 7000 nM.

B6: DD9 murine monoclonal anti-TG2 antibody (antibody, V domains shown)
VH: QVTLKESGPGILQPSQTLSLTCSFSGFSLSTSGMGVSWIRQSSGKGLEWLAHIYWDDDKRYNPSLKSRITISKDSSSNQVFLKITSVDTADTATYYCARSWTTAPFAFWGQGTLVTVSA
VL: B5 VL with S30D, E78G, F85Y, S91N
In the case of B6, the EC50 [8] is reported as 564 nM.

From patent US20180355060A1 (published 2018)
